From patent US20120178796A1 (published 2012)
Each block holds one binder with its values, some of them ahead of it.

B1: SIRT1-FL (endogenous full length SIRT1) (enzyme, human, UniProt Q96EB6 1-747, looked up)
chain: MADEAALALQPGGSPSAAGADREAASSPAGEPLRKRPRRDGPGLERSPGEPGGAAPEREVPAAARGCPGAAAAALWREAEAEAAAAGGEQEAQATAAAGEGDNGPGLQGPSREPPLADNLYDEDDDDEGEEEEEAAAAAIGYRDNLLFGDEIITNGFHSCESDEEDRASHASSSDWTPRPRIGPYTFVQQHLMIGTDPRTILKDLLPETIPPPELDDMTLWQIVINILSEPPKRKKRKDINTIEDAVKLLQECKKIIVLTGAGVSVSCGIPDFRSRDGIYARLAVDFPDLPDPQAMFDIEYFRKDPRPFFKFAKEIYPGQFQPSLCHKFIALSDKEGKLLRNYTQNIDTLEQVAGIQRIIQCHGSFATASCLICKYKVDCEAVRGDIFNQVVPRCPRCPADEPLAIMKPEIVFFGENLPEQFHRAMKYDKDEVDLLIVIGSSLKVRPVALIPSSIPHEVPQILINREPLPHLHFDVELLGDCDVIINELCHRLGGEYAKLCCNPVKLSEITEKPPRTQKELAYLSELPPTPLHVSEDSSSPERTSPPDSSVIVTLLDQAAKSNDDLDVSESKGCMEEKPQEVQTSRNVESIAEQMENPDLKNVGSSTGEKNERTSVAGTVRKCWPNRVAKEQISRRLDGNQYLFLPPNRYIFHGAEVYSDSEDDVLSSSSCGSNSDSGTCQSPSLEEPMEDESEIEEFYNGLEDEPDVPERAGGAGFGTDGDDQEAINEAISVKQEVTDMNYPSNKS
B4: Myc-tagged SIRT1-ΔExon8 (SIRT1 Δ8 tagged at the C-terminus with c-Myc and 6x His) (enzyme)
chain: ADEAALALQPGGSPSAAGADREAASSPAGEPLRKRPRRDGPGLERSPGEPGGAAPEREVPAAARGCPGAAAAALWREAEAEAAAAGGEQEAQATAAAGEGDNGPGLQGPSREPPLADNLYDEDDDDEGEEEEEAAAAAIGYRDNLLFGDEIITNGFHSCESDEEDRASHASSSDWTPRPRIGPYTFVQQHLMIGTDPRTILKDLLPETIPPPELDDMTLWQIVINILSEPPKRKKRKDINTIEDAVKLLQECKKIIVLTGAGVSVSCGIPDFRSRDGIYARLAVDFPDLPDPQAMFDIEYFRKDPRPFFKFAKEIYPGQFQPSLCHKFIALSDKEGKLLRNYTQNIDTLEQVAGIQRIIQCHGSFATASCLICKYKVDCEAVRGDIFNQVVPRCPRCPADEPLAIMKPEIVFFGENLPEQFHRAMKYDKDEVDLLIVIGSSLKVRPVALIPSNQYLFLPPNRYIFHGAEVYSDSEDDVLSSSSCGSNSDSGTCQSPSLEEPMEDESEIEEFYNGLEDEPDVPERAGGAGFGTDGDDQEAINEAISVKQEVTDMNYPSNKS
notes: Transiently expressed in HCT116 cells, about 95 kDa; Found phosphorylated at S27 and S47 in lysates; also called SIRT1-delta exon 8; SIRT1 D8; not shown: C-terminal c-Myc and 6x His tags

Experiments:
[1] = target: T1, p53 (endogenous, HCT116 p53+/+ cells) (human, UniProt P04637 1-393); assay: cell-based or functional assay
[2] = target: B4; assay: pull-down / co-immunoprecipitation from HCT116 cells
Method: (§1) SIRT1-ΔExon8 was exogenously expressed in HCT116 cells and immuno-precipitated. […] SIRT1-ΔExon8 and Flag-tagged AROS were exogenously expressed in HCT116 cells, and the Flag epitope was immuno-precipitated. In the eluate, AROS was detected by probing with an anti-AROS antibody (Methods), while the interaction with SIRT1-ΔExon8 was probed with anti-c-Myc antibody (9E10, Santa Cruz). C. […] SIRT1-ΔExon8 was exogenously expressed in HCT116 cells and cells were harvested 24 h post-transfection. Cell lysates were immuno-precipitated with anti-c-Myc antibody (9E10, Santa Cruz). Western-blotting was performed with a C-terminal anti-SIRT1 antibody (residues 448-747, H300, Santa Cruz) which detects both endogenous SIRT1-FL and SIRT1-ΔExon8 (see: FIG. 2a). * indicates a non-specific band;

[3] = target: T1, p53 (endogenous, HCT116 p53+/+ cells); assay: immunoprecipitation of exogenous SIRT1 Δ2-9 with His antibody, blotted with p53 antibody
[4] = target: T2, DBC-1 (endogenous, HCT116 cells) (human, UniProt Q8N163 1-923); assay: immunoprecipitation of exogenous SIRT1-ΔExon8 from HCT116 cells, eluate probed with anti-DBC-1
T2 construct: Endogenous protein in cell lysate, probed with anti-DBC-1; also called endogenous DBC-1
Method: as §1

[5] = target: B1; assay: immunoprecipitation with anti-c-Myc 9E10 from HCT116 lysates, Western blot with H300 anti-SIRT1
Method: as §1

T1 sequence (P04637 whole entry): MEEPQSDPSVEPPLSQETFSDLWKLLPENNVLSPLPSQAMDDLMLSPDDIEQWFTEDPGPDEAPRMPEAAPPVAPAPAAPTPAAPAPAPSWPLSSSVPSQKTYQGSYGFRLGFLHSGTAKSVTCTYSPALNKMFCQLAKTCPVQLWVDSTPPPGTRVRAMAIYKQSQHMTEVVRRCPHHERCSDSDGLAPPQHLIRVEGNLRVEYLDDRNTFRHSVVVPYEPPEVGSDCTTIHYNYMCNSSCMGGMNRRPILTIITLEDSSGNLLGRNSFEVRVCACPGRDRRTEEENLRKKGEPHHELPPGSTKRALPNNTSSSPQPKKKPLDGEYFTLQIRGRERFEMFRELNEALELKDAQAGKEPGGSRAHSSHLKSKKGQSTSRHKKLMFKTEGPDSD
T2 sequence (Q8N163 whole entry): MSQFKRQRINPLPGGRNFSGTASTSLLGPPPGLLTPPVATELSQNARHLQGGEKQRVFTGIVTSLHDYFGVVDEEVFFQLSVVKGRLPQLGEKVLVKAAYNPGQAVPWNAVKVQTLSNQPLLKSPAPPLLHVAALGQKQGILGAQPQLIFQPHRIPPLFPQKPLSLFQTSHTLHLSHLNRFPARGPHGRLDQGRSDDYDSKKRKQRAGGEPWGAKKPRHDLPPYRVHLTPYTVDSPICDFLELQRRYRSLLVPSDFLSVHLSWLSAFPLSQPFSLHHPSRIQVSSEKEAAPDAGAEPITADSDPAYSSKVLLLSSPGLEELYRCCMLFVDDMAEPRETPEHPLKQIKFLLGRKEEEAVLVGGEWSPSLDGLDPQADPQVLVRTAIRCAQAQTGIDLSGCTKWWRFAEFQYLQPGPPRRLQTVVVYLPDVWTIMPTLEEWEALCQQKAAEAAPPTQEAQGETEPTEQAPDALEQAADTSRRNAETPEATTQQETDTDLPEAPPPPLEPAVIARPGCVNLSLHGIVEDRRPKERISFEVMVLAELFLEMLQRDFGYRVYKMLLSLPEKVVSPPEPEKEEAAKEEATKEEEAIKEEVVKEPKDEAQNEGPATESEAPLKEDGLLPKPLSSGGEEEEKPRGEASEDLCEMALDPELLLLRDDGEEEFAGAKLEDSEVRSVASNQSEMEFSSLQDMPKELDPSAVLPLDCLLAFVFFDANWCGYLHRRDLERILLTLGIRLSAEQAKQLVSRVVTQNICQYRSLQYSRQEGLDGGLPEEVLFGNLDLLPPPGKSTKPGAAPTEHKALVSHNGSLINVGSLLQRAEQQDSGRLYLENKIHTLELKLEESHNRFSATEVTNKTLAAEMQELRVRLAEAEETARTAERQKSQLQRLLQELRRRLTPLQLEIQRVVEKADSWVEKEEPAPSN

Binder: B1
p53 acetylation levels following SIRT1 FL depletion (siRNA) under basal conditions in HCT116 cells, immunoblot [1]: > 50 fold

binding result [2]: binds
B2: Flag-tagged AROS (other, UniProt Q86WX3 1-136, looked up, not shown: small tags and cut ends)
chain: MSAALLRRGLELLAASEAPRDPPGQAKPRGAPVKRPRKTKAIQAQKLRNSAKGKVPKSALDEYRKRECRDHLRVNLKFLTRTRSTVAESVSQQILRQNRGRKACDRPVAKTKKKKAEGTVFTEEDFQKFQQEYFGS
notes: its order in the chain is arbitrary

binding result [3]: binds
B3: Myc-His-SIRT1 Δ2-9 (MH-SIRT1 Δ2-9) (other, not shown: small tags and cut ends)
chain: MADEAALALQPGGSPSAAGADREAASSPAGEPLRKRPRRDGPGLERSPGEPGGAAPEREVPAAARGCPGAAAAALWREAEAEAAAAGGEQEAQATAAAGEGDNGPGLQGPSREPPLADNLYDEDDDDEGEEEEEAAAAAIGYRDNLLFVLVAVTVIVGHARVQV
notes: Expressed in HCT116 p53+/+ cells from pcDNA3.1; Serine 47 found phosphorylated; also called exogenous SIRT1 Δ2-9

Binder: B4
binding result [4]: no binding | binding result [5]: no binding
